# T1: Cobrotoxin (N. Atra, Miami Serpentarium) (Naja atra, UniProt P60770 22-83)
# T1 sequence: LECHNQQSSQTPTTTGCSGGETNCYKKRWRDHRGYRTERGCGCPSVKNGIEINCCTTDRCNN
# B1: Anti-cobrotoxin VHH (B9) (VHH)
# VHH: QVQLQESGGGLAQAGGSLRLSCSASRNIFRVYGWYRQAPGKQREWVASITRDDSTAYADSVKGRFTISRDSAKNTMYLQMSSLRLEDTSTYYCAAQSISGTIQWGQGTQVTVSS
# notes: also called VHH candidate against cobrotoxin
# Molecular target: T1, Cobrotoxin (N. Atra, Miami Serpentarium)
# Experiment: panning, phage ELISA and purified-VHH ELISA on coated toxin
binder,measurement,value
B1,binding result,binds

# — US20200157197A1 (VENOMYX, published 2020)
